The record followed here is patent US20260258115A1 (MAPP BIOPHARMACEUTICAL, published 2026).

The target in this assay is RSV fusion glycoprotein (RSV F) on RSV-A2 virus (respiratory syncytial virus, UniProt P03420 26-574). Description: cell-based or functional assay.

Changes are numbered by the printed parent chain.

B1: ADI-41408 (antibody, V domains shown)
VH: QVQLVESGAEVKKPGESLKISCRDSGYSFSSFWIGWVRQMPGKGLEWVGIIYPGDSDIRYSPSFQGRVTISADKSISTAYLQWRSLKASDSAMYYCARSEKLGSFDRWGQGTLVTVSS
VL: DIQMTQSPSSLSASVGDRVTITCQANRDISNCLNWYQQRPGKAPELLIYDASYLETGVPSRFTGSGSGTDFTFTISSLQPEDIATYYCQQYDNLLFTFGPGTKVEIK
Turning to B1, the “Neutralization IC50 (RSV subtype A)” value is greater than 25 µg/mL.

B2: ADI-41394 (antibody, V domains shown)
VH: QVQLVQSGAEVKKPGSSVKVSCKASGGTFNTYAISWVRQAPGQGLEWMGGIIPILGVSNYAQRFQGRVTFSADELTNTAYMELSSLRSEDTAVYFCARPVGAYTLGDAFEIWGRGTTVTVSS
VL: QPVLTQSSSASASLGSSVKLTCTLSSGHSDFIIAWHQQQPGKAPRYLMKFEGNGRYSKGSGIPDRFSGSSSGADRCLTISNLQSEDEADYYCETWDSNTHVVFGGGTKLTVL
As to B2, the “Neutralization IC50 (RSV subtype A)” value was greater than 25 µg/mL.

B3: ADI-41364 (antibody, V domains shown)
VH: EVQLLESGAEVKKPGASVKVSCKASGYTFTDHSIHWVRQAPGRGLEWMGWFNPHTGVTDYAQKFQGWVTMTSDTSISTAYMELSSLKSDDTAIYFCARDQWETDGAYFLDYWGQGTLVTVSS
VL: QSALTQPASVSGSPGQSITISCTGTSSDVGNFKLVSWYQQHPGKAPKLMIYEGNKRPSGVSNRFSGSKSGNTASLTISGLQAEDEADYYCCSSAVSSTFFGTGTKLTVL
With B3, the “Neutralization IC50 (RSV subtype A)” value is 0.14 µg/mL.

B4: ADI-41441 (antibody, V domains shown)
VH: EVQLVQSGPGLVKPSETLSLTCSVSGASISRYHYYWGWIRQSPGKGLEWIGTIYYSGTTYYNPSLESRVTISADTSKNQVSLKLTSVTAADTAVYYCARGSGDTALDFSFEYWGQGALVTVSS
VL: DIQLTQSPSFLSASVGDRITITCRASQGISNSLAWYQQKPGKAPKLLIYAASTLQFAVPSRFSGSGSGTEFTLTISSLQPEDFATYYCQQLDSYPLTFGGGTKLEIK
For the molecule B4, the “Neutralization IC50 (RSV subtype A)” value is greater than 25 µg/mL.

B5: ADI-41396 (antibody, V domains shown)
VH: EVQLVESGGGLVNPGGSLRLSCVVSGFAFSSYGMNWVRQAPGKGLEWVSSISASSSYIDYADSVKGRFIISRDNAKNSLHLQMNSLRAEDTAVYYCARLGYDSSTYYTNWFDPWGRGTLVTVSS
VL: QSVVTQEPSVSGAPGQRVTISCTGSSSNIGTGYDVHWYQQLPGAAPKLLIYGNSNRPSGVPDRISGSKSGTSASLAITGLQAEDEADYYCQSYDSSLSGYVFGTGTKVTVL
As to B5, the “Neutralization IC50 (RSV subtype A)” value amounted to 1.37 µg/mL.

B6: ADI-41397 (antibody, V domains shown)
VH: EVQLVESGGGLVKPGGSLRLSCAASGFKFSSYYLNWVRQAPGKGLEWVSSISGGSSYINYADSVKGRFTISRDNAKNTLDLQMSNLRAEDTAVYYCARVVGATGPLYFDLWGRGTLVTVSS
VL: B5 VL with V4L, E7P, T31A, L41F, A44T, S54N, I64F, T104A
Regarding B6, the “Neutralization IC50 (RSV subtype A)” value was 0.09 µg/mL.

B7: ADI-41409 (antibody, V domains shown)
VH: QVQLVQSGAEVKKPGASVKVSCKASGYTFTNYGISWVRQAPGQGLEWMGWISAYNGNTNYAQKFQDRVTMTTDTSTSTAYMELRSLRYDDTAVYYCARDTPGEYASAMFDHWGQGTLVTVSS
VL: DIVMTQSPLSLPVTLGQPASISCRSSQSLVYSDGNTYLSWFQQRPGQSPRRLIYKVSNRDSGVPDRFSGSGSGTDFTLKISGVEAEDVGVYYCMQGTHWPPTFGQGTKLEIK
For the molecule B7, the “Neutralization IC50 (RSV subtype A)” value was determined as 0.29 µg/mL.

B8: ADI-41439 (antibody, V domains shown)
VH: QVQLVQSGTEVKNPGASVKVSCKASGYTFSNYGITWVRQAPGQGLEWMAWISAYNGNILYAQNVQGRVTMTTDTSTSTGYMELRSLRSDDTAVYYCARDAPAGTLTLLDYWGQGTLVTVSS
VL: B7 VL with S7T, S25P, S39N, K79R, G82R, T97S, P101Y, T102A, L109V
For B8, the “Neutralization IC50 (RSV subtype A)” value came to 0.34 µg/mL.

B9: ADI-41386 (antibody, V domains shown)
VH: QVQLVQSGAEVKKPGASVKVSCKASGYTFTGNYIHWVRQAPGQGLEWMGGINPNSGATNYARKFQGRISMTRDTSINTAYMEVSSLRSDDTATYYCARDAPPVVIPAAIHWFDAWGQGTLVTVSS
VL: SYELTQPPSASGTPGQRVTISCSGSSSNIGRNTVNWYQQFSGTAPRLLIYRTNQRPSGVPDRFSGSKSGTSASLVISGLQSEDEADYYCASWHDTLNDVVFGGGTKLTVL
B9: the “Neutralization IC50 (RSV subtype A)” value is greater than 25 µg/mL.

B10: ADI-41382 (antibody, V domains shown)
VH: EVQLVESGGGLVQPGRSLRLSCAASGFTFDDYAMHWVRQAPGKGLEWVSGISWSGDTRGYAESVKGRFTITRDNAKKYLYLQMNSLRAEDTAFYYCAKDAYYFGSGNEKFYYGMDVWGQGTTVTVSS
VL: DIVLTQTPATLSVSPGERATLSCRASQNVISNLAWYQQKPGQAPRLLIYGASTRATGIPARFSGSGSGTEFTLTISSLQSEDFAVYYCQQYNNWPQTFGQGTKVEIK
As for B10, the “Neutralization IC50 (RSV subtype A)” value came to 0.02 µg/mL.

B11: ADI-41362 (antibody, V domains shown)
VH: EVQLVESGGGLVQPGGSLRLSCAASGFTFSDHWMNWVRQTPGKGLEWVANIKPDGRETYYVDSVKGRFTISRDNSKKSVYLQMNSLRAEDTAVYYCVRDGHIVVVTAVPPGFFDLWGRGTLVTVSS
VL: DIQVTQSPSSLSASVGDRVTITCQASQDLTKYLNWYQQKPGKAPKLLIYDISNLETGVPSRFSGSGFGTEFTLTISSLQPEDVATYYCQQYQNLPYTFGQGTKVEIK
Turning to B11, the “Neutralization IC50 (RSV subtype A)” value is 0.911 µg/mL.

B12: ADI-41423 (antibody, V domains shown)
VH: QVQLVESGGGLVKPGGSLRLSCAASGFTFSSYSMNWVRQAPGKGLEWVSSISSSSSYIYYADSVKGRFTISRDNAKNSLYLQMNSLRAEDTAVYYCARDPSSSWNRNDYWGQGTLVTVSS
VL: QSVLIQPASVSGSPGQSITISCTGTSSDVGGYNYVSWYQQHPGKAPKLMIYDVSNRPSGVSNRFSGSKSGNTASLTISGLQAEDEADYYCSSYTSSSTLVVFGGGTKVTVL
Take B12: the “Neutralization IC50 (RSV subtype A)” value is greater than 25 µg/mL.

B13: ADI-41438 (antibody, V domains shown)
VH: QVQLVQSGAEMRRPGSSVRLPCKASGYTFVSHTIVWVRQAPGQGLEWMGGIIPSLRTPNYAQNFQDRLTITADESARTAYMELSSLTSNDTAVYYCARETFQGGYYLDYWGQGTLVTVSS
VL: EIVMTQSPGTLSVSPGDTAALSCRASQSVGRNLAWYQQKPGQAPRLLIFGASTRAADIPGRFSGSGSGTEFTLTITSLQSEDFAVYYCQQYNKWPPYTFGQGTKVEIK
As for B13, the “Neutralization IC50 (RSV subtype A)” value is greater than 25 µg/mL.

B14: ADI-41390 (antibody, V domains shown)
VH: EVQLVESGGGLVKPGGSLRLSCAASGFSSSSYFMNWVRQAPGKGPEWVSSISGSSSFINYADSVKGRFTISRDNAKNSLYLQMNSLRAEDTAVYYCARAVLPAGVGGYWFDSWGQGTLVTVSS
VL: QSVVTQPPSVSGAPGQRVTISCTGSSSNIGAGYDVHWYQHLPGRAPKLLIYGNSNRPSGVPDRFSGSKSGTSASLVITGLQAEDEADYCCQSYDSSLSGAVFGGGTQLTVL
On to B14, for which the “Neutralization IC50 (RSV subtype A)” value came out at 0.62 µg/mL.

B15: ADI-41363 (antibody, V domains shown)
VH: QVQLVQSGAEVKKPGSSVKVSCKASGGTFSSYAITWVRQAPGQGLEWMGGIIPLFGTAKYAQQFQGRVTITADESTSTAYMELSSLRSEDTAVYYCARDGEVCTNGFCWFLDWGLGTLVTVSS
VL: DIRVTQSPSSLSASVGDRVTITCQASQDISNYLNWYQQKPGKAPKLLIYDASKLETGVPSRFSGSGSGTDFTFTISSLQPEDIATYYCQNYGNFPHFGGGTKLEIK
In the case of B15, the “Neutralization IC50 (RSV subtype A)” value came out at 0.143 µg/mL.

B16: ADI-41380 (antibody, V domains shown)
VH: QVQLVQSGAEVKKPGESLKISCKGSGYSFTSYWIGWVRQMPGKGLEWMGIIYPGDSDTRYSPSFQGQVTISADKSISTAYLQWSSLKASDTAMYYCASSRAYYDILTGYYVASAETQTKAAFDIWGQGTTVTVSS
VL: B15 VL with R3Q, K53N, T72S, N90Q, G92D, F94L, P95I, H96T, G99Q, L103V
Regarding B16, the “Neutralization IC50 (RSV subtype A)” value stood at 0.0549 µg/mL.

B17: ADI-41399 (antibody, V domains shown)
VH: QVQLVQSGAEVKKPGASVKVSCKASGYTFTTFAIHWVRQAPGQRLEWMGWINAGNGNTKYSQKFQGRVTITRDTSASTAYMELSSLRSEDTAVYYCARPEISSSSLNEKDDYWGQGTLVTVSS
VL: QPVLTQPASVSGSPGQSITISCTGTSSDVGAYDFVSWYQQHPGKAPKFMIYEVSHRPSGVSNRFSGSKSGNTASLTISGLQAEDEADYYCSSYTTSNTLVFGGGTKLTVL
With B17, the “Neutralization IC50 (RSV subtype A)” value is greater than 25 µg/mL.

B18: ADI-41433 (antibody, V domains shown)
VH: EVQLLESGGGAVQPGRFLRLSCAASGFTFRSYGMHWVRQAPGKGLEWVAVISYDGSDKYYADSVKGRFTISRDNSKNTLFLLMNGLRAEDAAVYYCAKDIASAGTLRGSDVWGQGTMVTVSS
VL: QPVLTQPRSVSGSPGQSVTISCTGTSSDVGGFNYVSWYQQHPGKAPKLMIYDVRVRPSGVPDRFSGSKSGNTASLTISGLQGEDEADYYCCSYTVTYTLVFGGGTKLTVL
With B18, the “Neutralization IC50 (RSV subtype A)” value is greater than 25 µg/mL.

B19: ADI-41437 (antibody, V domains shown)
VH: QVQLVQSGGEVKKPGASVKVSCKASGYTFTHYGISWARQAPGQGIEWMGWINVHNGNTEYAQRFQGRVTMTTDTSTNTAYMEMTSLTSDDTAVYYCARDKIVVVVVPNYHGMDVWGQGTLVTVSS
VL: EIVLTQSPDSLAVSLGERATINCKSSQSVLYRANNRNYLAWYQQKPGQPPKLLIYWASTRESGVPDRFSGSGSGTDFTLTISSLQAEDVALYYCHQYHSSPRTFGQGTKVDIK
B19: the “Neutralization IC50 (RSV subtype A)” value is greater than 25 µg/mL.

B20: ADI-41417 (antibody, V domains shown)
VH: QVQLVESGGGLVKPGGSLRLSCAASGFTFSSYSMNWVRQAPGKGLEWVSSISAGSSYIYYADSLKGRFTISRDNAKNSLYLQMNSLRAEDTAVYYCARVNTHYYDSSAYHNFDSWGQGTLVTVSS
VL: QPVVTQPPSVSGAPGQRVTISCTGSSSNIGAGYDVHWYQQLPGTAPKLLIYGNTNRPSGVPERFSGSKSGTSASLAITGLQAEDEADYYCQSYDTNLSAPWVFGGGTKLTVL
With B20, the “Neutralization IC50 (RSV subtype A)” value stood at 0.71 µg/mL.

B21: ADI-41424 (antibody, V domains shown)
VH: QVQLVQSGAEVREPGASVKVSCKPSGYTFANYGISWVRQAPGQGLEWMAWISAYNGNTNYAPKVQGRVSVTTDSSTGIGYMELRSLRSDDTAVYYCVRDTPAIAGAATLDFWGQGTLVTVSS
VL: DIVLTQSPLSLAVTPGQSASISCRSRQSHVFSDGNTYVSWFQQRPGRSPRRLIYRVSYRDSGVPDRFSGSGSGSDFTLRISRVEAEDVGVYYCMQGTHWPRTFGQGTKLEIK
In the case of B21, the “Neutralization IC50 (RSV subtype A)” value came to 0.28 µg/mL.
